The record followed here is PMC11344278, “Structural and biochemical characterization of the C‐terminal region of the human RTEL1 helicase” (Protein Science : A Publication of the Protein Society, 2024).

For orientation: Kd means the free concentration of one partner at which half of the binding sites on the other are occupied at equilibrium, for simple one-to-one binding.

Data set [1] deals with T1, RTEL1 CT-L (entire C-terminal region) (Homo sapiens) (UniProt Q9NZ71).
T1 sequence (Q9NZ71 whole entry, looked up): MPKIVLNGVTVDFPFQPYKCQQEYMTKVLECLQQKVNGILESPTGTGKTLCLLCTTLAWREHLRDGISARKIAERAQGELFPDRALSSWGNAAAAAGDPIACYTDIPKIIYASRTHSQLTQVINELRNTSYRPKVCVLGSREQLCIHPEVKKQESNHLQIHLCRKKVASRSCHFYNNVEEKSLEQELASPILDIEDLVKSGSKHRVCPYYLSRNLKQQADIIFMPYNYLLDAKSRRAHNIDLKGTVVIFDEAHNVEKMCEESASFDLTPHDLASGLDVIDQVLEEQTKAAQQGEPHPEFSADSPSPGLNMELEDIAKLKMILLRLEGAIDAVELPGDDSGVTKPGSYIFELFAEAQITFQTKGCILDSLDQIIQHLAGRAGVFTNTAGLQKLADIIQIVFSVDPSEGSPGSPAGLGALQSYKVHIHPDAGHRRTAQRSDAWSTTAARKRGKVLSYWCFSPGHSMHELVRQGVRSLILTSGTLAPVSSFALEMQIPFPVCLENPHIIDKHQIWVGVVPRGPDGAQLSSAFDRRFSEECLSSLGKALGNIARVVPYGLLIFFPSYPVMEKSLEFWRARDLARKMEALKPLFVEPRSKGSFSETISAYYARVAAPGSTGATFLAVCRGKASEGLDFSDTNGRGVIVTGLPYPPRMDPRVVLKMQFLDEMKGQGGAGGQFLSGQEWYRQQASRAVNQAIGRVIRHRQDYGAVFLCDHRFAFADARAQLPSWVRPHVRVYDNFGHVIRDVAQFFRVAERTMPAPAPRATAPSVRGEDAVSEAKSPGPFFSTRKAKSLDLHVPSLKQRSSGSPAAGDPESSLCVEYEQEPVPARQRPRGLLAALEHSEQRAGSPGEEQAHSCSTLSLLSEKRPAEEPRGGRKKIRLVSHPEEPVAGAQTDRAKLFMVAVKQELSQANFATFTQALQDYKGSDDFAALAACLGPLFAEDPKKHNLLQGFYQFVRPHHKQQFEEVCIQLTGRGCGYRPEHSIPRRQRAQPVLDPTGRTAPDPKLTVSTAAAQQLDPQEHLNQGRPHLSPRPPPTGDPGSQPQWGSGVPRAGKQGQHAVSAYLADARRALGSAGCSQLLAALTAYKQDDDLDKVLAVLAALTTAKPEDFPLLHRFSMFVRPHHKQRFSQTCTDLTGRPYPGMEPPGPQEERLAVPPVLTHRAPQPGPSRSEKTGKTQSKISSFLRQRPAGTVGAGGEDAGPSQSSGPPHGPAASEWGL
Put plainly: EMSA. The conditions noted are these: 0.5 mM Mg2+, 20 mM Tris pH 7.5, 50 mM KCl, 0.5 mM MgCl2, 10% glycerol, 0.1% Igepal, 10 nM substrate, EMSA at room temperature 15 min (0-160 nM protein), FA at 25 C …. (In general: Mobility shift assays separate free from complexed probe on a gel.)

The target in data set [2] is T2, RTEL1 HHD1-2 (Homo sapiens) (UniProt Q9NZ71).
T2 sequence: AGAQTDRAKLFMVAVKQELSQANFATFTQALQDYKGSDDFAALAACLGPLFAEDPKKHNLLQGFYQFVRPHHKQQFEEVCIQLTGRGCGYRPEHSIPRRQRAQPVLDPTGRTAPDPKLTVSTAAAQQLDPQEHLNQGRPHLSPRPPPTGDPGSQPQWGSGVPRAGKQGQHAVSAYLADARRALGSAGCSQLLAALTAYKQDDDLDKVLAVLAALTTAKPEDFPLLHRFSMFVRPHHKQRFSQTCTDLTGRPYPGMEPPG
Nature of the data set: fluorescence anisotropy. The note with it: 0.5 mM Mg2+; 20 mM Tris pH 7.5, 50 mM KCl, 0.5 mM MgCl2, 10% glycerol, 0.1% Igepal, 10 nM substrate; EMSA at room temperature 15 min (0-160 nM protein), FA at 25 C …. On the technique in general: Fluorescence polarisation rises when a labelled molecule tumbles more slowly, as on binding a larger partner.

A further data set concerns the target T3, RTEL1 HHD2 (Homo sapiens, UniProt Q9NZ71 1053-1147).
T3 sequence: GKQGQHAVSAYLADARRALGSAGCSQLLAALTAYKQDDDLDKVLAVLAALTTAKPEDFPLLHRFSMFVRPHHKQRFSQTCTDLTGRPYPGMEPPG
Put plainly: fluorescence anisotropy; 0.5 mM Mg2+; 20 mM Tris pH 7.5, 50 mM KCl, 0.5 mM MgCl2, 10% glycerol, 0.1% Igepal, 10 nM substrate; EMSA at room temperature 15 min (0-160 nM protein), FA at 25 C (0-2500 nM protein); Hill-slope fit. The conditions noted are these: protein: recombinant, tags: N-terminal 6His-Trx removed by TEV.

Data set [3] concerns the target T4, human PCNA (Proliferating Cell Nuclear Antigen) (human, UniProt P12004 1-261, uniformly 2H,13C,15N labelled (for NMR experiments)).
T4 construct: 3-residue N-terminal extension left after HRV 3C cleavage, preceding the native initial methionine; human PCNA, UniProt P12004, from the native initial methionine; The methods describe only the isotopically labelled PCNA made for NMR; not shown: His6, N-terminal, cleaved
Put plainly: ITC; 16.8 uM PCNA in the cell, 282 uM PIP1 peptide in the syringe; 35 °C; PBS pH 7.0, 1 mM TCEP; fitted to a 1:1 binding model (one set of identical sites). The note with it: both partners purified.

T4 sequence (P12004 other isoform, or with tags, fused parts or gaps): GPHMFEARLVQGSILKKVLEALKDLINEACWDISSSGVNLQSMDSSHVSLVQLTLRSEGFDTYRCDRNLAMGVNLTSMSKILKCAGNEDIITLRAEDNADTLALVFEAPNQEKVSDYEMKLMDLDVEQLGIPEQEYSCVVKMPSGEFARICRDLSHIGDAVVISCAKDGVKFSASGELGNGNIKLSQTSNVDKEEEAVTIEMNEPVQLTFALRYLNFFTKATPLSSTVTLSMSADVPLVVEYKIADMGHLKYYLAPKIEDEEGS

Take “CTACTACCCCCACCCTCACAACCTTTTTTTTTTTTTTT [ssDNA]”: the Kd in data set [1] was 40 nM; in data set [2] it was 247 nM.
For “CTACTACCCCCACCCTCACAACCTTTTTTTTTTTTTTT / TTTTTTTTTTTTTTTGGTTGTGAGGGTGGGGGTAGTAG [DNA fork (D1L:D3L)]”, the values for the Kd in data set [1] and in data set [2] were 43 nM and 155 nM, respectively.
For “GTACCCGGGGATCCTCTAGAGTCGACCTGCAGGCATGCAAGCTTGGCACTGGCCGTCGTTTTACAAC / GTTGTAAAACGACGGCCAGTGCCTTTTCCCAGCCTCAATCTCATCACTCTAGAGGATCCCCGGGTAC / GCUUGCAUGCCUGCAGGCCAGCCUCAAUCUCAUCUUUUU [R-loop (R4:D9:D11)]” the same measures were 10 nM and 160 nM.
On to “GTACCCGGGGATCCTCTAGAGTCGACCTGCAGGCATGCAAGCTTGGCACTGGCCGTCGTTTTACAAC / GTTGTAAAACGACGGCCAGTGCCTTTTCCCAGCCTCAATCTCATCACTCTAGAGGATCCCCGGGTAC [Bubble (D9:D11)]”, for which the Kd in data set [1] was 27 nM.
As to “CTACTACCCCCACCCTCACAACCTTTTTTTTTTTTTTT / UUUUUUUUUUUUUUUGGUUGUGAGGGUGGGGGUA [DNA/RNA fork (D1L:R3L)]”, in data set [1], the Kd came out at 52 nM.
For the molecule “TTAGGGTTAGGGTTAGGGTTAGGGTT [2JPZ telomeric G4]”, in data set [1] (K+), the Kd was 26 nM.
Turning to “CUACCCCCACCCUCACAACCUUUUUUUUUUUUUUU [ssRNA]”, the Kd in data set [1] was found to be 46 nM; in data set [2] it was 192 nM.
“CTACTACCCCCACCCTCACAACC (double strand) [dsDNA (D1B:D3B)]” came in with a Kd in data set [1] of 63 nM.
Consider UUAGGGUUAGGGUUAGGGUUAGGG [TERRA G4], for which the Kd in data set [1] (K+) worked out at 10 nM; in data set [2], 38 nM.
Take “GTACCCGGGGATCCTCTAGAGTCGACCTGCAGGCATGCAAGCTTGGCACTGGCCGTCGTTTTACAAC / GTTGTAAAACGACGGCCAGTGCCTTTTCCCAGCCTCAATCTCATCACTCTAGAGGATCCCCGGGTAC / GCTTGCATGCCTGCAGGCCAGCCTCAATCTCATC [D-loop (D4:D9:D11)]”: the Kd is 11 nM in data set [1] and 327 nM in data set [2].
Taken in the same sequence, the figures for “CUACCCCCACCCUCACAACCUUUUUUUUUUUUUUU / UUUUUUUUUUUUUUUGGUUGUGAGGGUGGGGGUA [RNA fork (R1L:R3L)]” were 51 nM and 273 nM.
In data set [1] (K+), “TGAGGGTGGGTAGGGTGGGTAA [1XAV c-Myc promoter G4]” registered a Kd of 57 nM.

B1: DNA fork (D1L:D3L) (dsDNA)
DNA 1: CTACTACCCCCACCCTCACAACCTTTTTTTTTTTTTTT
DNA 2: TTTTTTTTTTTTTTTGGTTGTGAGGGTGGGGGTAGTAG
In the case of B1, the Kd in the data set with RTEL1 HHD2 (label: 5' 6-FAM on strand 1, fork: 23 bp duplex, T15 arms (3' on strand 1, 5' on strand 2)) is 254 ± 52 nM.
On to UUAGGGUUAGGGUUAGGGUUAGGG (structured_RNA) [TERRA G4], for which the Kd in the data set with RTEL1 HHD2 (label: 5' 6-FAM, G4) was 489 ± 124 nM.

B2: RNA fork (R1L:R3L) (dsRNA)
RNA 1: CUACCCCCACCCUCACAACCUUUUUUUUUUUUUUU
RNA 2: UUUUUUUUUUUUUUUGGUUGUGAGGGUGGGGGUA
As for B2, the Kd in the data set with RTEL1 HHD2 (label: 5' 6-FAM on strand 1, fork with U15 arms (3' on strand 1, 5' on strand 2), end as printed not fully blunt) worked out at 512 ± 104 nM.
For QSKISSFL [RTEL1 PIP1 peptide (canonical PIP-box of human RTEL1)], binding in data set [3] was characterised by a dissociation constant (Kd) of 53.3 ± 7.2 µM.
